Source: patent US6734286 (CELLTECH R AND D, dated 2004)

Molecular target: T1, Recombinant human IL-5 (human, UniProt P05113 20-134)
T1 construct: also called human interleukin-5; hIL-5
T1 sequence (looked up): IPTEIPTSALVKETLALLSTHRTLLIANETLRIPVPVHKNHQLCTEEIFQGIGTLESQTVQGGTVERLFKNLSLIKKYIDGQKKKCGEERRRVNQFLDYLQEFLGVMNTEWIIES
Experiment: BIAcore; antibody captured by polyclonal anti-human Fc, recombinant human IL-5 as analyte
Method: Affinities of the chimeric and CDR grafted anti-IL-5 antibodies were determined using Biospecific Interaction Analysis (BIA). Antibodies were produced in CHO cells by transfection of combinations of heavy and light chain genes and purified from culture supernatants on Protein A Sepharose. […] The amount of anti-IL-5 captured for each run was approximately 1600 RU. Recombinant human IL-5 was then passed over the Sensorchip at various concentrations (0.6 to 5 µg/ml) in the above buffer. The Sensorchip was cleaned after each run with 100 mM HCl and 100 mM orthophosphoric acid to remove bound IL-5 and antibody. The sensorgrams generated were analysed using the kinetics software available with the BIAcore machine.

binding result: binds
B1: CTIL-5-10 gH/gL6 antibody (antibody, V domains shown)
VH: EVQLVESGGGLVQPGGSLRLSCAVSGLSLTSNSVNWIRQAPGKGLEWVGLIWSNGDTDYNSAIKSRFTISRDTSKSTVYLQMNSLRAEDTAVYYCAREYYGYFDYWGQGTLVTVSS
VL: DIQMTQSPSSLSASVGDRVTITCLASEGISSYLAWYQQKPGKAPKLLIYGANSLQTGVPSRFSGSGSATDYTLTISSLQPEDFATYYCQQSYKFPNTFGQGTKVEVKR
notes: Human constant domains; also called CTIL-5-10 gH/qL6; CDR grafted 39D10
